Our source for the amount coimmunoprecipitated with GluK2 when Neto2 is coexpressed, percent of signal in the absence of Neto2 (% of signal in the absence of Neto2) and amount coimmunoprecipitated with GluK2 when Neto2Δ7 is coexpressed, percent of signal in the absence of Neto2 (% of signal in the absence of Neto2) values is article PMC3516556.

The assay deals with FLAG-GluK2 (UniProt P42260). Nature of the assay: co-IP; COS-7 cells transfected with combinations of FLAG-GluK2, Neto2 or Neto2Δ7 and GRIP(PDZ4-7)-myc; lysates immunoprecipitated with an anti-GluK2 antibody, western blot.
Chain of UniProt P42260 (P42260 32-908): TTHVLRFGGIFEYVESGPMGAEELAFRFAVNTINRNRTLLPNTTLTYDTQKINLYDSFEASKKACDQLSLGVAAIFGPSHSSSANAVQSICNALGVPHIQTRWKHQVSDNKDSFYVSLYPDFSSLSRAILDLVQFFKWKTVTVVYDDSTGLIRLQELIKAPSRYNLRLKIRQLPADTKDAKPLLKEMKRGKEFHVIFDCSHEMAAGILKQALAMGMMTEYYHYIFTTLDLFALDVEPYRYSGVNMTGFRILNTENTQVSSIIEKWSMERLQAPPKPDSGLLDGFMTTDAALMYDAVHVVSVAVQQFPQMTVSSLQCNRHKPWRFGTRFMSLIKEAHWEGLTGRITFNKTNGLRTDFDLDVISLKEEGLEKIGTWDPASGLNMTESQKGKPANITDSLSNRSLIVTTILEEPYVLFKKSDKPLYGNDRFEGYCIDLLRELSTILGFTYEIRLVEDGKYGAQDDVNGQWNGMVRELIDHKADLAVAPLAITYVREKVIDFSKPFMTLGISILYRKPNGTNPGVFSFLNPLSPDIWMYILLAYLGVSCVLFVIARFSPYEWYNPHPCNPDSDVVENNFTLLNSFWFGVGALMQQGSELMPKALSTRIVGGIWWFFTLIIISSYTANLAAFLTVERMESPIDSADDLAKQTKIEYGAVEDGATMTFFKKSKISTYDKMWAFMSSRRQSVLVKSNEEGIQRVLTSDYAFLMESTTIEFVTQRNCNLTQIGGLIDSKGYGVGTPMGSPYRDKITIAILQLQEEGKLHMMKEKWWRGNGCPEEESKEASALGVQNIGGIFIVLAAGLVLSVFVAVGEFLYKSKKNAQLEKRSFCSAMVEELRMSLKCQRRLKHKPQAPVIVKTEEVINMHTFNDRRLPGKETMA

Regarding “C-terminal myc-tagged GRIP(PDZ4-7) (domain or fragment)”, the amount coimmunoprecipitated with GluK2 when Neto2 is coexpressed, percent of signal in the absence of Neto2 (% of signal in the absence of Neto2) turned out to be 250 and the amount coimmunoprecipitated with GluK2 when Neto2Δ7 is coexpressed, percent of signal in the absence of Neto2 (% of signal in the absence of Neto2) was determined as 103.
